Results published in article PMC13082787, “A lipoprotein partner for the Escherichia coli outer membrane protein TolC” (eLife, 2026).
“And” between values parts separate entries of the source, which are not always exact repeats. Equal entries are not always repeated.

T1: Detergent-purified FLAG-tagged TolC (E. coli, UniProt P02930 23-493)
T1 construct: also called TolC-FLAG; source: detergent-purified
T1 sequence (looked up): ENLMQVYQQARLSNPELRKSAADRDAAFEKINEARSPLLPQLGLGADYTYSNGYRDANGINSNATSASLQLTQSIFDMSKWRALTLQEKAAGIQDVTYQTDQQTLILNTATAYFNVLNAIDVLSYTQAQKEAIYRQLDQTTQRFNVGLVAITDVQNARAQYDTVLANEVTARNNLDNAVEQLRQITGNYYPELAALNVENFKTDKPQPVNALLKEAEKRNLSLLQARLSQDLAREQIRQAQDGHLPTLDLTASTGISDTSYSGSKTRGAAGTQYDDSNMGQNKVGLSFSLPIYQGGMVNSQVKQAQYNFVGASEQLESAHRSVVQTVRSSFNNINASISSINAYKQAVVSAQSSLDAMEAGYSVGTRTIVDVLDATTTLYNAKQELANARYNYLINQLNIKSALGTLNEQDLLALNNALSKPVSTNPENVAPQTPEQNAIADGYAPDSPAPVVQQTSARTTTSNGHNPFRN

T2: TolC-FLAG (DDM-purified full-length TolC with a C-terminal FLAG-tag) (E. coli, UniProt P02930 23-493)
T2 construct: also called FLAG-tagged TolC; source: DDM-purified TolC-FLAG; not shown: FLAG, C-terminal, kept
T2 sequence (looked up): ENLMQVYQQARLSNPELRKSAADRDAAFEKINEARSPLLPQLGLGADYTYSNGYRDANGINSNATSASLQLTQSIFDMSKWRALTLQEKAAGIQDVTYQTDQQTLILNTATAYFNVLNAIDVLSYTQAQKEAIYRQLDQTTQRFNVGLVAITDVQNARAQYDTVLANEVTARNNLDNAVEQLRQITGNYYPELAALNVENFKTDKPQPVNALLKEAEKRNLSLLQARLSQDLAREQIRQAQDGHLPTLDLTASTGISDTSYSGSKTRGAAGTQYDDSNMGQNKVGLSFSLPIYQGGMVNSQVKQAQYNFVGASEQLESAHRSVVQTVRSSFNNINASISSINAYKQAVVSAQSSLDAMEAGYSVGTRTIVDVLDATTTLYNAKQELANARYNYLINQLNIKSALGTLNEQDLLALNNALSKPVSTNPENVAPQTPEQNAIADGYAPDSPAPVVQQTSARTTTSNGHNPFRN


Assays:
[1] = target: T1, Detergent-purified FLAG-tagged TolC; assay: ITC; ITC200, 25°C; 230 µM N-terminally His-tagged soluble YbjP injected into 40 µM TolC; 20 mM HEPES pH 7.5, 200 mM NaCl, 0.03% DDM; single-site model; details: both partners purified
[2] = target: T2, TolC-FLAG (DDM-purified full-length …); assay: ITC; N-terminally His-tagged YbjPs at 230 µM injected into 40 µM TolC-FLAG in the cell; 25°C; 20 mM HEPES pH 7.5, 200 mM NaCl, 0.03% (wt/vol) DDM; single-site binding model; two independent measurements; details: both partners purified

Kd [1] [µM]	Kd [2]	stoichiometry N [2]	Binder
~4			Soluble YbjP (D28-R171) with an N-terminal His-tag (domain or fragment, E. coli, UniProt P75818 28-171, looked up, also called YbjPs; YbjP_(28-171); not shown: His tag, N-terminal, kept) DNGTRSGPCVEGGPDNVAQQFYDYRILHRSNDITALRPYLSDKLATLLSDASRDNNHRELLTNDPFSSRTTLPDSAHVASASTIPNRDARNIPLRVDLKQGDQGWQDEVLMIQEGQCWVIDDVRYLGGSVHATAGTLRQSIENR
	4.1 µM and 5.9 µM and 5 µM	0.64 and 0.42 and 0.53	soluble YbjP (YbjPs), residues 28-171, N-terminally His-tagged (domain or fragment, E. coli, UniProt P75818 28-171, looked up, also called YbjP_(28-171); YbjP soluble; source: E. coli BL21 (DE3), purified from the cytoplasm (HisTrap FF, dialysis); not shown: His-tag, N-terminal, kept) DNGTRSGPCVEGGPDNVAQQFYDYRILHRSNDITALRPYLSDKLATLLSDASRDNNHRELLTNDPFSSRTTLPDSAHVASASTIPNRDARNIPLRVDLKQGDQGWQDEVLMIQEGQCWVIDDVRYLGGSVHATAGTLRQSIENR
